Test results as given in the supplement of paper PMC6757056.
± gives the standard deviation of the averaged measurements.

B1: library; a variant is named by its letters at N, in order (parent)
chain: GCUGUCACCGAGAAACUGUGAAGUAUAUCUUAAACCUGGGCACUUAAAAGAUAUAUGGAGUUAGUAGUGCAACCUGCUCGGUCUGAUGAGUCCNNNNNNGGACGAAACAGC

Columns and labels:
[1] = variants of: B1; assay: normalized RNA/DNA level without ligand (relative to sTRSVctl = 100) (log10 (% of sTRSVctl)); HEK293T; ligand: cyclic di-GMP (c-di-GMP-II aptamer); higher = less ribozyme self-cleavage, higher mRNA level; details: reporter: mCherry (pCS4076), ligand present: no
Outline: (§1)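 RNA level was computed as RNA reads over DNA reads divided by a spiked-in non-cleaving sequence or by the top sequences, then scaled and log-transformed. Scaling was ×100 with log10, the top group was 25 sequences, and the threshold was ≥100 DNA reads. The reads came from HEK293T cells transfected at 4 µg per 6-well well with ribozyme switch library plasmids (mCherry, or eGFP in some ligand experiments). Total RNA was extracted with EDTA 72 h after transfection, with any ligand added 1 h before it.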

[2] = variants of: B1; assay: normalized RNA/DNA level with ligand (relative to sTRSVctl = 100) (log10 (% of sTRSVctl)); HEK293T; ligand: cyclic di-GMP (c-di-GMP-II aptamer); ligand concentration (+) RNA-Seq: 1 mM; higher = less ribozyme self-cleavage, higher mRNA level; details: reporter: mCherry (pCS4076), ligand present: yes
Outline: as §1

Variant | normalized RNA/DNA level without ligand (log10) [1] | normalized RNA/DNA level with ligand (log10) [2]
CGACUU | 1.44 ± 0.089 | 1.63 ± 0.12
UGAAGC | 1.679 ± 0.0046 | 1.83 ± 0.14
UGAAGG | 1.661 ± 0.00062 | 1.84 ± 0.08
UGAAGA | 1.62 ± 0.024 | 1.77 ± 0.13
AGAAGC | 1.56 ± 0.13 | 1.74 ± 0.077
AGAAGU | 1.57 ± 0.022 | 1.75 ± 0.16
UGAACU | 1.72 ± 0.052 | 1.86 ± 0.11
UGAACA | 1.75 ± 0.037 | 1.87 ± 0.074
UGAACC | 1.78 ± 0.022 | 1.86 ± 0.12
GCUUCC | 1.72 ± 0.023 | 1.85 ± 0.034
GCUUCG | 1.67 ± 0.022 | 1.76 ± 0.076
UGAGUA | 1.73 ± 0.032 | 1.85 ± 0.15
UGAGUU | 1.67 ± 0.017 | 1.8 ± 0.091
UGAUUA | 1.704 ± 0.011 | 1.84 ± 0.11
UGAUUG | 1.718 ± 0.017 | 1.88 ± 0.088
UGAUUC | 1.71 ± 0.019 | 1.86 ± 0.08
AGAAAU | 1.71 ± 0.03 | 1.83 ± 0.058
AGAUGG | 1.55 ± 0.089 | 1.73 ± 0.082
AGAUGU | 1.56 ± 0.036 | 1.77 ± 0.054
UGACAU | 1.62 ± 0.074 | 1.81 ± 0.075
UGACAC | 1.7 ± 0.022 | 1.87 ± 0.086
UGACAA | 1.69 ± 0.018 | 1.8 ± 0.11
UGACAG | 1.712 ± 0.0029 | 1.82 ± 0.097
GGCAGC | 1.716 ± 0.013 | 1.82 ± 0.081
GGCAGA | 1.637 ± 0.013 | 1.76 ± 0.1
CGAUGU | 1.75 ± 0.025 | 1.91 ± 0.11
CGAUGG | 1.67 ± 0.07 | 1.81 ± 0.073
CCUUGG | 1.76 ± 0.081 | 1.9 ± 0.15
CCUUGC | 1.72 ± 0.059 | 1.83 ± 0.085
